Laboratory results as given in patent publication US20140157444A1 (COUNCIL OF SCIENTIFIC AND INDUSTRIAL RESEARCH, published 2014).

Columns and labels:
mHDAC2-FLAG = molecular target: T1, mHDAC2-FLAG (mouse, UniProt P70288 1-488); assay: co-immunoprecipitation from co-transfected HEK 293 cells: anti-FLAG IP, anti-Myc blot
T1 construct: Species is read from the prefix 'm' of the plasmid name; also called pCMX-mHDAC2-FLAG; not shown: FLAG tag
Text: (§1) FIG. 10. Identification of proteins interacting with WDR13. […] B) Immunolocalization of WDR13 protein in HELA cells transfected with pCMV-FLAG-Wdr13 (SEQ ID NO: 3) vector using anti FLAG antibody. C) Silver stained gel of immunoprecipitated proteins using anti FLAG antibody from HELA cells transfected with pCMV-FLAG control and pCMV-FLAG-Wdr13 vectors having SEQ ID NO: 3.
(§2) FIG. 11. Interactions of WDR13 with ERs, HDACs and PHIP1 A) HEK 293 cells were co-transfected with FLAG-Wdr13 (from the position 922 to 2443 in SEQ ID NO: 3) and GFP-ERα, grown in the presence or absence of estradiol. The cell lysate was immunoprecipitated with anti FLAG antibody and immunoblotted with anti GFP antibody. […] B) HEK 293 cells were co-transfected with FLAG-Wdr13 (from the position 922 to 2443 in SEQ ID NO: 3) and Myc-ERβ I (from the position 900-2673 in SEQ ID NO: 6), grown in the presence or absence of estradiol. The cell lysate was immunoprecipitated with anti FLAG antibody and immunoblotted with anti Myc antibody. […] C) HEK 293 cells were co-transfected with Myc-Wdr13 (from the position 900 to 2448 in SEQ ID NO: 4)/various FLAG-HDACs and the cell lysate was immunoprecipitated with anti FLAG antibody and immunoblotted with anti Myc antibody.

hHDAC4-FLAG = molecular target: T2, hHDAC4-FLAG (human, UniProt P56524 1-1084, limits assumed); assay: as above
T2 construct: Species is read from the prefix 'h' of the plasmid name; also called pCMX-hHDAC4-FLAG; not shown: FLAG tag
T2 sequence (P56524 whole entry): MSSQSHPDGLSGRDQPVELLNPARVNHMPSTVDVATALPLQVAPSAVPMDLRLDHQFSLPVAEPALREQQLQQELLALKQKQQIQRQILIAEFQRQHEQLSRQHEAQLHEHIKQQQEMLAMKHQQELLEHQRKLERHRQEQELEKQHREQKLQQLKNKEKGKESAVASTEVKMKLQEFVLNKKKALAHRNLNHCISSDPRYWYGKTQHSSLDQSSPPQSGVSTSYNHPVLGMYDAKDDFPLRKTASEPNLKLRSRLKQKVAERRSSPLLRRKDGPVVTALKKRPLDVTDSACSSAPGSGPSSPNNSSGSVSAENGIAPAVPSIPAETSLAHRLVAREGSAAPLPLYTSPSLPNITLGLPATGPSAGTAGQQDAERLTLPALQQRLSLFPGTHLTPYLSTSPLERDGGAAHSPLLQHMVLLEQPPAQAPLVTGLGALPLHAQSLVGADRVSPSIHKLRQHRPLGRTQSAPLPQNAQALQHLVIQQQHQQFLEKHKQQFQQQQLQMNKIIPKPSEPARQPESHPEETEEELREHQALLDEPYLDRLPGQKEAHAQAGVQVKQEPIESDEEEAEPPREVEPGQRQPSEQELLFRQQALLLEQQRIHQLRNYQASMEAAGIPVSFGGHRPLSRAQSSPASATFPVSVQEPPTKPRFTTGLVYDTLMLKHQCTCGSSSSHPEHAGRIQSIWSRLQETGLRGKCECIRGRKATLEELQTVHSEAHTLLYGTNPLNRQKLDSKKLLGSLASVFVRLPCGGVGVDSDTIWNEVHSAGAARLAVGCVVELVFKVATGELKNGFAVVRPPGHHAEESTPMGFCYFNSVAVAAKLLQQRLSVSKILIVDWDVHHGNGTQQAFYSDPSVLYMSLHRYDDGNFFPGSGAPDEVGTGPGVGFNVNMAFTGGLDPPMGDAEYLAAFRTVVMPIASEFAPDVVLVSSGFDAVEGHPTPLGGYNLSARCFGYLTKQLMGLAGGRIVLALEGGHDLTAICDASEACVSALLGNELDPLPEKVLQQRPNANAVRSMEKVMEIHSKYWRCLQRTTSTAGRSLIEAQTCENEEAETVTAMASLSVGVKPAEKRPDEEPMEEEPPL
Text: as §1, §2

T1 sequence (P70288 whole entry): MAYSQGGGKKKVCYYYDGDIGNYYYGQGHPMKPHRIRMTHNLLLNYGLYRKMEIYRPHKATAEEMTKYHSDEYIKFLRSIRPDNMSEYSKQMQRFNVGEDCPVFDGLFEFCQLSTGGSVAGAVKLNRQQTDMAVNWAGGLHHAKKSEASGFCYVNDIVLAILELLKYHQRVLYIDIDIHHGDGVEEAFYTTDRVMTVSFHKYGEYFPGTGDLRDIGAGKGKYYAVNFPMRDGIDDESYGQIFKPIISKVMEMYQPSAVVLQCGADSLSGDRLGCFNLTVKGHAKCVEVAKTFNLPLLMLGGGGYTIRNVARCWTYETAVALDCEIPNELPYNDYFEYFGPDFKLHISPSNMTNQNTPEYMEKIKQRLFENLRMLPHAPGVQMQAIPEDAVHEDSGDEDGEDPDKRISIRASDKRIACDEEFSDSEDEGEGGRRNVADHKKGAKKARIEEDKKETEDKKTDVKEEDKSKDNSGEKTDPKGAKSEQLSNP

- binding result (mHDAC2-FLAG): no binding
- binding result (hHDAC4-FLAG): no binding
B1: Myc WDR13 fusion protein (other, mouse, UniProt Q91V09 1-485, looked up)
chain: MAAVWQQVLAVDARYNAYRTPTFPQFRTQYIRRRSQLLRENAKAGHPPALRRQYLRLRGQLLGQRYGPLSEPGSARAYSNSIVRSSRTTLDRMEDFEDDPRALGARGHRRSVSRGSYQLQAQMNRAVYEDRPPGSVVPTSVAEASRAMAGDTSLSENYAFAGMYHVFDQHVDEAVPRVRFANDDRHRLACCSLDGSISLCQLVPAPPTVLHVLRGHTRGVSDFAWSLSNDILVSTSLDATMRIWASEDGRCIREIPDPDGAELLCCTFQPVNNNLTVVGNAKHNVHVMNISTGKKVKGGSSKLTGRVLALSFDAPGRLLWAGDDRGSVFSFLFDMATGKLTKAKRLVVHEGSPVTSISARSWVSREARDPSLLINACLNKLLLYRVVDNEGALQLKRSFPIEQSSHPVRSIFCPLMSFRQGACVVTGSEDMCVHFFDVERAAKAAVNKLQGHSAPVLDVSFNCDESLLASSDASGMVIVWRREQK
notes: Overexpressed in HEK 293 cells; (mouse gene); also called pCMV-Myc-Wdr13; not shown: Myc peptide at the N-terminus, from the pCMV-Myc vector
